In experiment [1] the test system is EGFR-wild-type non-small cell lung cancer (NSCLC).
Text: A group participating in the study was comprised of 132 patients with wild-type epidermal growth factor receptor (EGFR) who progressed on ≥1 platinum-based standard of care therapy and were EGFR tyrosine kinase inhibitor (TKI)-naïve. […] Data were collected at 10+ months.
Therefore, in this Example, Biomarker positive (BM+) is used interchangeably with Heregulin positive (HRG+). BM+ patients were defined as having detectable HRG mRNA by RNA-ISH (RNA in situ hybridization) as described above in Example 1.
Experiment [2] deals with locally advanced or metastatic ER+ and/or PR+, HER2 negative breast cancer. Briefly: Randomized, double-blind phase 2 trial of exemestane +/- MM-121, breast cancer. The format is in vivo, human.
In experiment [3] the test system is advanced, platinum-resistant ovarian cancer. The experiment is described as follows: Clinical trial, ovarian cancer: paclitaxel with or without MM-121. The format is in vivo, human. The conditions noted are these: for HR (PFS, treatment vs control): paclitaxel+MM-121 vs paclitaxel, data at 60 weeks. On the procedure: A clinical trial was performed that was designed to allow, inter alia, determination of associations between biomarker profiles and clinical responses. Biomarker data were measured in pre-treatment biopsies and (when available) in archived tumor samples. Results pertaining to predictive biomarkers measured in pre-treatment biopsies are described herein.
Four types of assay (each set forth above) were used to assess the six primary biomarkers assessed in this study (EGFR, ErbB2, ErbB3, ErbB4, HRG and BTC):
In total, six primary biomarkers were measured using 15 assays. For the 5 chromogenic assays (qIHC and RNA-ISH), two different overall scores were used: composite score and top-10 score. Accordingly, 20 different variables were assessed at this stage. A Cox proportional hazard model was used to rank the biomarkers. This method determines if PFS varies with biomarker values differently in the treatment arm relative to the control arm. A P-value cutoff of 0.4 was used to determine which biomarkers would be prioritized for subsequent bivariate analyses.
Based on these two thresholds, a biomarker profile positive (BM+) subpopulation is defined for subsequent analyses as: (ErbB2 levels ≤log10 5.1) AND (HRG score ≥1) (“ErbB2 low” AND “HRG positive”). Accordingly, a biomarker profile negative (BM−) subpopulation is defined as (ErbB2 levels >log10 5.1) OR (HRG score <1) This definition results in a BM+prevalence of 34% in the clinical trial population.
In FIG. 8G (progression free survival at 10+ months) and FIG. 8H (overall survival at 10+ months), the treatment arm is represented by a blue line and the control arm is represented by a black line.

In experiment [4] the target is ErbB3 (Homo sapiens, UniProt P21860). The experiment is described as follows: Pre-clinical data and computational modeling: MM-121 potency versus ErbB2 level. The conditions noted are these: when ErbB2 levels rise above about 100,000 to about 200,000 receptors per cell.
The mark [5] stands for this setting: BM+ (heregulin+) patients, FIG. 11.
Where [6] appears, read: group ErbB2 < 5.1 (qIHC) & HRG > -5.

Regarding `C#Cc1cccc(Nc2ncnc3cc(OCCOC)c(OCCOC)cc23)c1` [erlotinib], in experiment [1] (setting [5]), the “best overall response: complete response (CR)” value is reported as “none”, the “best overall response: partial response (PR)” value was 6.7% and the “best overall response: progressive disease (PD)” value was 53.3%. For the same molecule, in experiment [1] (patients treated with erlotinib alone, FIG. 12C), the “PFS of BM- (heregulin-) patients compared with BM+ (heregulin+) patients” value (from here on “PFS … compared with BM+ (heregulin+) patients”) was “much longer PFS”.
Consider `C=C1C[C@@H]2[C@H](CC[C@]3(C)C(=O)CC[C@@H]23)[C@@]2(C)C=CC(=O)C=C12` [exemestane, 6-methylenandrosta-1,4-diene-3,17-dione, reference compound], for which the “PFS … compared with BM+ (heregulin+) patients” value in experiment [2] (patients treated with exemestane alone, FIG. 10E) was “much longer PFS”.
Consider `CC(=O)O[C@H]1C(=O)[C@@]2(C)[C@H]([C@H](OC(=O)c3ccccc3)[C@]3(O)C[C@H](OC(=O)[C@H](O)[C@@H](NC(=O)c4ccccc4)c4ccccc4)C(C)=C1C3(C)C)[C@]1(OC(C)=O)CO[C@@H]1C[C@@H]2O` [paclitaxel, Paclitaxel, reference compound], for which the “PFS … compared with BM+ (heregulin+) patients” value in experiment [3] (patients treated with paclitaxel alone, FIG. 8I) was “much longer PFS”.

B1: MM-121: anti-ErbB3 monoclonal antibody having VH and VL sequences as shown in SEQ ID NOs: 1 and 2 (antibody, V domains shown)
VH: EVQLLESGGGLVQPGGSLRLSCAASGFTFSHYVMAWVRQAPGKGLEWVSSISSSGGWTLYADSVKGRFTISRDNSKNTLYLQMNSLRAEDTAVYYCTRGLKMATIFDYWGQGTLVTVSS
VL: QSALTQPASVSGSPGQSITISCTGTSSDVGSYNVVSWYQQHPGKAPKLIIYEVSQRPSGVSNRFSGSKSGNTASLTISGLQTEDEADYYCCSYAGSSIFVIFGGGTKVTVL
For B1, in experiment [4], the “potency as a function of ErbB2 level” value is listed as “loses potency”. Besides, in experiment [2] (Cox model with additive terms for treatment, biomarker groups and clinical covariates), the “estimated HR in the BM+ group, sensitivity analysis” value is 0.38. For the same molecule, the “HR, BM population” value is recorded as 0.75 in experiment [2] (MM-121+exemestane vs exemestane, no selection, N=115); 0.82 in experiment [2] (group ErbB2 < 5.1 (HCT)); 0.66 in experiment [2] (group ErbB2 < 5.1 (HCT) & HRG > -5, 55 patients); 1.16 in experiment [2] (group ErbB2 < 5.1 (qIHC)); 0.86 in experiment [2] (setting [6]); 0.68 in experiment [2] (group HRG > -5 (RT-PCR), all patients with this biomarker). Also, the “HR, BM negative” value in experiment [2] (group ErbB2 < 5.1 (HCT)) worked out at 3.00; in experiment [2] (group ErbB2 < 5.1 (HCT) & HRG > -5, PFS at about 60 weeks, N=38), 0.89; in experiment [2] (group ErbB2 < 5.1 (qIHC)), 3.00; in experiment [2] (setting [6]), 1.30; in experiment [2] (group HRG > -5), 0.99. Besides, the “HR, BM positive” value is listed as 0.62 in experiment [2] (group ErbB2 < 5.1 (HCT)); 0.32 in experiment [2] (group ErbB2 < 5.1 (HCT) & HRG > -5, PFS at about 60 weeks, N=17); 0.84 in experiment [2] (group ErbB2 < 5.1 (qIHC)); 0.32 in experiment [2] (setting [6]); 0.35 in experiment [2] (group HRG > -5). The “HR (trt:ctrl)” value in experiment [3] (BM+ (HER2 low & HRG+), subgroup ErbB4 score 0) was found to be 0.13; in experiment [3] (BM+, subgroup ErbB4 score >=1) it was 0.65; in experiment [3] (BM- (HER2 low & HRG+ not met), subgroup ErbB4 score 0) it was 1.05; in experiment [3] (BM-, subgroup ErbB3 score >=2) it was 0.86. Besides, the “cumulative HR” value in experiment [3] (all patients with BM measurements, prevalence=100%) was “≈ 1”. Further, the “HR (PFS, treatment vs control)” value is given as 0.37 in experiment [3] (BM+ subpopulation (ErbB2 <=log10 5.1 AND HRG score >=1)) and 1.54 in experiment [3] (BM- subpopulation (ErbB2 >log10 5.1 OR HRG score <1)).

(Values after patent US10273304B2, “Biomarker profiles for predicting outcomes of cancer therapy with ERBB3 inhibitors and/or chemotherapies” (Merrimack Pharmaceuticals, Inc., priority 2013, dated 2019).)
